Assay results: paper PMC3247260

Biological target: K63-linked diUb (UniProt P0CG48)
Assay: ITC; USP13-UBA12 (1.25 mM stock) injected into K63-, K48-, linear diUb (0.1 mM) or monoUb (0.2 mM), 25 injections of 1.5 µL; 50 mM Tris, 150 mM NaCl, pH 7.5; 25°C

- Kd: 1 µM
Substance: tandem UBA domains of USP13 (USP13-UBA12, residues 652-776) (from UniProt Q92995 652-776) (domain or fragment)
